Data on 11 molecules can be found in patent publication US20140171623A1 (published 2014).

Assay [1] has as its target T1, FLAG-tagged extracellular domain of human FcγRIIIA (F158 allotype) (human, UniProt P08637 17-208).
T1 construct: extracellular domain; Secreted from HEK 293 cells, purified on anti-FLAG M2 agarose; also called FLAG-tagged FcγRIIIA; Flag-tagged Human FcγRIIIA; not shown: FLAG tag
As to the kind of experiment: SPR (BIAcore 3000), IgG immobilised, soluble FLAG-tagged human FcγRIIIA, equilibrium fit. As to the method:
Protein concentrations were calculated by the bicinchoninic acid methods. The different human IgG1s were coupled to the dextran matrix of a CM5 sensor chip (Pharmacia Biosensor) using an Amine Coupling Kit as described (Johnsson et al., 1991, Anal. Biochem. 198: 268-77) at a surface density of between 7765 and 8385 RU. Excess reactive esters were quenched by injection of 70 μl of 1.0 M ethanolamine hydrochloride, pH 8.5. […] Dilutions and binding experiments were carried out in 50 mM HBS buffer containing 0.01 M HEPES pH 7.4, 0.15 M NaCl, 3 mM EDTA and 0.005% P-20. Data were collected for about 50 min, and one 30 sec pulse of 5 mM HCl was used to regenerate the surfaces. Flag-tagged human FcγRIIIA was allowed to flow over an uncoated cell, and the sensorgrams from these blank runs subtracted from those obtained with IgG1-coupled chips.
On the technique in general: SPR reads the build-up and loss of mass on a sensor chip optically.

The target in a further assay is T2, human C1q (Quidel) (human, UniProt P02745 23-245; P02746 28-253; P02747 29-245).
T2 construct: Bought protein (Quidel, CA); In the CDC assays C1q came with normal human serum complement; also called complement protein C1q; soluble human C1q
T2 sequence (P02745 23-245 limits assumed, chain 1 of 3): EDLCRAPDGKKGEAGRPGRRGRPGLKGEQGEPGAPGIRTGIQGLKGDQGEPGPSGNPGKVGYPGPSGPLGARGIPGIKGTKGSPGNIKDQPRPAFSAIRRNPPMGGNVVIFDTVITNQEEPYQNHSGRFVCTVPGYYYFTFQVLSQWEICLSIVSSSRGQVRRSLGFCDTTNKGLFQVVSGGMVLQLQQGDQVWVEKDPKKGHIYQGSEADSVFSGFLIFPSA
T2 sequence (P02746 28-253 limits assumed, chain 2 of 3): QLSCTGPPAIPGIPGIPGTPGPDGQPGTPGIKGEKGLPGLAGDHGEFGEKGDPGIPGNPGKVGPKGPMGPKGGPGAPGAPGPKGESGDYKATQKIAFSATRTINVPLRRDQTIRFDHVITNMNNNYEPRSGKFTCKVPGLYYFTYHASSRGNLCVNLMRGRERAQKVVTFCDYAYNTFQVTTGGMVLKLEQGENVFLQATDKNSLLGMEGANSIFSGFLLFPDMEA
T2 sequence (P02747 29-245 limits assumed, chain 3 of 3): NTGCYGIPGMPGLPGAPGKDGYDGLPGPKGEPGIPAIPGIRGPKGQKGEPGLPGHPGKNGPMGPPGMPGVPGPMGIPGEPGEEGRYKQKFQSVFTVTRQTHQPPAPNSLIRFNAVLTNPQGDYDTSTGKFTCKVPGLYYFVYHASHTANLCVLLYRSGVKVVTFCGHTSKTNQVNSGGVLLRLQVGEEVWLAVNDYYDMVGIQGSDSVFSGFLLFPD
As to the kind of experiment: SPR (BIAcore 3000), IgG immobilised, soluble human C1q, equilibrium fit. As to the method:
Protein concentrations were calculated by the bicinchoninic acid methods. The different human IgG1s were coupled to the dextran matrix of a CM5 sensor chip (Pharmacia Biosensor) using an Amine Coupling Kit as described (Johnsson et al., 1991, Anal. Biochem. 198: 268-77) at a surface density of between 4830 and 9221 RU. Excess reactive esters were quenched by injection of 70 μl of 1.0 M ethanolamine hydrochloride, pH 8.5. […] Dilutions and binding experiments were carried out in 50 mM HBS buffer containing 0.01 M HEPES pH 7.4, 0.15 M NaCl, 3 mM EDTA and 0.005% P-20. Data were collected for about […], and two 1-min pulse of 1M NaCl/50 mM NaOH were used to regenerate the surfaces. Human C1q was allowed to flow over an uncoated cell, and the sensorgrams from these blank runs subtracted from those obtained with IgG1-coupled chips.

For the next assay, the target named is T3, human EphA2-Fc (human, UniProt P29317 25-534, limits assumed).
T3 construct: not shown: Fc part; origin and limits not described
T3 sequence (P29317 25-534 limits assumed): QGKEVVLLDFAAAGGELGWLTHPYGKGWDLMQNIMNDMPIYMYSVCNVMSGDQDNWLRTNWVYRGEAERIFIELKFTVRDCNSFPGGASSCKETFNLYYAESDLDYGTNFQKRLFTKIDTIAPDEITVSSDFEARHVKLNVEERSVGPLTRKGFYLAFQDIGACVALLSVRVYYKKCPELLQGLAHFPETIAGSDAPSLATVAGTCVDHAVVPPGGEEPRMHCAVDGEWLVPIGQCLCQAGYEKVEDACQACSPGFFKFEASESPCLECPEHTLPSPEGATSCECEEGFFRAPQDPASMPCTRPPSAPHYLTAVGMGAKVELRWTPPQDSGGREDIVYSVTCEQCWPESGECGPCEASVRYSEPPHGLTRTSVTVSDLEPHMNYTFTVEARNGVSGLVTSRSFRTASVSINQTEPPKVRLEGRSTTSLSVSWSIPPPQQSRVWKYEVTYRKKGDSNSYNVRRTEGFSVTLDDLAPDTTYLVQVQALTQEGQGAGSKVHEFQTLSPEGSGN
As to the kind of experiment: KinExA, solution equilibrium titration with human EphA2-Fc. As to the method:
Protein concentrations were calculated by the BCA method. […] Coated beads were then separated from unreacted EphA2-Fc using a gentle pulse spin and blocked for approximately 2 h at room temperature with 1 M Tris, pH 8.0, bovine serum albumin 10 mg/mL. Beads were then resuspended in 30 mL of run buffer (PBS, pH 7.4-0.02% NaN₃) and packed into a column. […] The amount of free IgG in the samples was derived from the fluorescence signal obtained after the passing of Cy5-labeled goat anti-human IgG F(ab′)₂ (typically 0.5-2 μg/ml; Jackson ImmunoResearch Laboratories, West Grove, Pa.) through the column. Dissociation constants (KDs) were determined by fitting the individual equilibrium titration data to a 1:1 binding model using the KinExA Pro 1.0.3. software.
A general note: A kinetic exclusion assay measures how much of one partner remains free in solution.

T1 sequence (P08637 17-208): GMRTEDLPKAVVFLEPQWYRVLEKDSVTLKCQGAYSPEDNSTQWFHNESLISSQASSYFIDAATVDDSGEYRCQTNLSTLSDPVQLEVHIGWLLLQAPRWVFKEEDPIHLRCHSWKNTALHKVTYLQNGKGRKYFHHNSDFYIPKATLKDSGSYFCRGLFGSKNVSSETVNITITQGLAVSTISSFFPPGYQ

B1: mAb 12G3H11 (wild type hinge), human anti-human EphA2 IgG1 (antibody)
heavy: not shown
light: DIQMTQSPSSLSASVGDRVTITCRASQSISNNLHWYQQKPGKAPKLLIKYAFQSISGVPSRFSGSGSGTDFTFTISSLQPEDFATYYCQQANSWPLTFGGGTKVEIK
notes: domain: CH1;domain: lower hinge, CH2, CH3; Human IgG1/κ from HEK 293 cells; also called Wild type (12G3H11); not shown: human κ chain constant region
As for B1, the Kd is 6050 nM in assay [1], 89 nM with human C1q (Quidel) and 0.0011 nM with human EphA2-Fc.

B2: 12G3H11 Fc variant 5-GGG Insert Low (antibody, human IgG1)
heavy: not shown
light: B1 light
notes: domain: CH1;domain: lower hinge, CH2, CH3; Human IgG1/κ; not shown: human κ chain constant region
On to B2, for which the results for the Kd in the assay with human C1q (Quidel) and with human EphA2-Fc were 282 nM and 0.0008 nM, respectively.

B3: 12G3H11 Fc variant 13-2 AA Delete Mid (antibody, human IgG1)
heavy: not shown
light: B1 light
notes: as for B2
The molecule B3 had an equilibrium dissociation constant (Kd) with human EphA2-Fc of 0.0017 nM.

B4: 12G3H11 Fc variant 20-KT to WW Mid (antibody, human IgG1)
heavy: not shown
light: B1 light
notes: as for B2
In the assay with human C1q (Quidel), B4 had a Kd of 61 nM.

B5: 12G3H11 Fc variant 19-PP to WW Low (antibody, human IgG1)
heavy: not shown
light: B1 light
notes: as for B2
For B5, the dissociation constant (Kd) with human C1q (Quidel) was 274 nM.

B6: 12G3H11 Fc variant 1-CD Invert (antibody, human IgG1)
heavy: not shown
light: B1 light
notes: as for B2
Regarding B6, binding with human C1q (Quidel) was put at a Kd of 92 nM.

B7: 12G3H11 Fc variant 18-EPKS to PPPP (antibody, human IgG1)
heavy: not shown
light: B1 light
notes: as for B2
As for B7, the Kd in the assay with human C1q (Quidel) is 75 nM; in the assay with human EphA2-Fc, 0.0015 nM.

B8: 12G3H11 Fc variant 17-DKTHT to PPPPP (antibody, human IgG1)
heavy: not shown
light: B1 light
notes: as for B2
For the molecule B8, in the assay with human C1q (Quidel), the affinity, expressed as Kd, was 91 nM.

B9: 12G3H11 Fc variant 14-T to C Middle (antibody, human IgG1)
heavy: not shown
light: B1 light
notes: as for B2
B9 yielded a Kd with human EphA2-Fc of 0.0072 nM.

B10: 12G3H11 Fc variant 8-PP to GG Low (antibody, human IgG1)
heavy: not shown
light: B1 light
notes: as for B2
For B10, the Kd in assay [1] is 6400 nM; in the assay with human C1q (Quidel) it was 155 nM.

B11: 12G3H11 Fc variant 6-GGG Insert High (antibody, human IgG1)
heavy: not shown
light: B1 light
notes: as for B2
Turning to B11, the dissociation constant Kd in the assay with human EphA2-Fc came to 0.0027 nM.

What is called Kd is the concentration at which binding is half-saturated. Low values mean higher affinity, high ones lower affinity.
